In the data set the target is T1, GST-CmABF3 (Chrysanthemum morifolium, UniProt A0A7T8G3B9 1-415).
T1 sequence: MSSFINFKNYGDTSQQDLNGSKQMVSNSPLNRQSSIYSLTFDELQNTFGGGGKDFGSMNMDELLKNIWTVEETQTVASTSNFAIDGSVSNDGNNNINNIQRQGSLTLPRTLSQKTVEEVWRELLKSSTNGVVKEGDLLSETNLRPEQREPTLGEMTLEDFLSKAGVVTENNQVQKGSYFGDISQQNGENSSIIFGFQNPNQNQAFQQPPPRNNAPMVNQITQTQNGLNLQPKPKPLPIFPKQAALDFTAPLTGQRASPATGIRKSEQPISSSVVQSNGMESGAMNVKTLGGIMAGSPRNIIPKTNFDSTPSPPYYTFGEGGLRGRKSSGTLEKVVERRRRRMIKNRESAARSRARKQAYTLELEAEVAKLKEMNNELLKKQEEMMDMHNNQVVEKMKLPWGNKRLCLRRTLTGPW
Description: EMSA; 3 ug protein; cold-probe competition 100-5000x, outcome only in gel; LightShift Chemiluminescent EMSA kit, 20 ul reaction, 3 ug protein; biotin probe 50 nM or 2 nM (Methods); buffer, salt, pH and temperature not stated. As to conditions: protein: recombinant; tags: GST (N-terminal, pGEX); chain copies: 2; blunt. (A gel shift assay detects complexes by their altered migration in electrophoresis.)

B1: proRAB18-probe (CmRAB18 promoter, two ABRE motifs) (dsDNA)
DNA 1: GAAATTAGACACGTACTTTTCAGTGATAACATAAACATACTTACGTGTTC
DNA 2: GAACACGTAAGTATGTTTATGTTATCACTGAAAAGTACGTGTCTAATTTC
Regarding B1, the binding result was “binds”.

(Values after publication PMC7496117, “A zinc finger protein BBX19 interacts with ABF3 to affect drought tolerance negatively in chrysanthemum”.)
